From the supplement of paper PMC10126150
± gives the standard deviation of the averaged measurements.

Each sequence was assayed on ATP (assay: switch fluorescence ratio, 500 uM ATP over buffer (Cy3 cluster intensity, sum of 5 cycles each) (fold (ratio)); higher = stronger signal-on switching upon ATP binding; sequences stand for … in TCGTCGGCAGCGTCAGATGTGTATAAGAGACAGTTTTTTTTTTTTTTTTTTTTTTTTT…TC). Conditions: aptamer strand: ATP DNA aptamer (quencher-CACCTGGGGGAGTATTGCGGAGGAAGG + anchor), 100 nM annealed; ATP concentration: 500 uM.
Method in brief: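 The quencher-labelled ATP aptamer, at 100 nM, was annealed to Cy3-labelled switching-strand clusters on a modified Illumina MiSeq flow-cell. The clusters were imaged in selection buffer, then after 15 min with 500 uM ATP at 22 °C, and this buffer/ATP cycle ran five times with NaOH stripping and re-annealing between runs. Per-cluster fluorescence ratios, summed target-cycle over summed buffer-cycle Cy3 intensity, were averaged per switch-domain sequence. Clusters outside 100-1000 RFU were excluded.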
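Note: ATP exposure 15 min at 22 °C before imaging.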

Sequence | switch fluorescence ratio
CGGCAGGCTC | 1.19 ± 0.053
TATAGGGCAT | 1.01 ± 0.032
CGGGTAGGGG | 0.996 ± 0.069
ATGTCACTTG | 1.02 ± 0.018
AATGGATTTG | 0.995 ± 0.013
CGGGGTCATG | 0.991 ± 0.024
ATCTGTATCC | 1.05 ± 0.04
GCATGGAAGG | 1.013 ± 0.0065
TTTATGCCGT | 0.9505 ± 0.0022
CCATTTGAGA | 0.998 ± 0.022
TTTAGGGTAT | 1.012 ± 0.0069
TGAAGTGTTG | 0.99 ± 0.019
GCCATTAGGA | 1.015 ± 0.0049
AATTCGCGGG | 0.981 ± 0.0069
GGGGGAAAGA | 0.989 ± 0.047
AAGGGGGGA | 1.01 ± 0.072
TGGCGTCTGA | 1 ± 0.013
AGCAGGGTGG | 1.02 ± 0.038
AAACAAAAAT | 1.01 ± 0.012
CAGCACAGGG | 1.18 ± 0.017
AAATCCTATT | 0.982 ± 0.016
AGTGGGAAAT | 0.994 ± 0.015
ATAACTCGGA | 1 ± 0.0019

Sequence | switch fluorescence ratio
TTTGGGATTG | 1.07 ± 0.015
AAGAGGATGG | 0.979 ± 0.011
TATAGCCTCG | 0.976 ± 0.017
AAGAATTGCG | 0.97 ± 0.033
TTCTGTGGGT | 0.955 ± 0.057
CGGAAGGTAG | 0.962 ± 0.015
CCAACAGCCC | 1.12 ± 0.079
ATCGATTTTA | 0.978 ± 0.056
TGATGTTGAC | 1 ± 0.013
CACATTGTCC | 0.9773 ± 0.0025
TTTACACGAT | 1.01 ± 0.019
AGGGGGGTCT | 1.01 ± 0.04
GATGTGCAAA | 1.01 ± 0.022
TCGTCTTATA | 0.991 ± 0.014
CCATCGTAAT | 4.84 ± 1.1
GGGTGGTTTG | 1.006 ± 0.0097
GGGGTAATTG | 1.01 ± 0.019
AAGTGGGCGC | 0.984 ± 0.016
TTAGCCTCTT | 0.996 ± 0.032
ATGAGTTGGG | 0.999 ± 0.024
GGTAACGAGG | 0.963 ± 0.039
GACTCGATCC | 1.08 ± 0.023
GATCATCAGT | 0.991 ± 0.023

Sequence | switch fluorescence ratio
TGGGACCGTC | 1.052 ± 0.0042
TAGAGCTAAT | 1.09 ± 0.17
AGGGCAACCG | 1.04 ± 0.028
GAAGGAGTGC | 1.07 ± 0.018
AGAAGAATTG | 1.04 ± 0.048
GGGAGCCTAC | 1.038 ± 0.0081
TAGGGAGAGT | 1.01 ± 0.022
TAATTGAAAA | 1.14 ± 0.15
GAGGTCGAAA | 0.98 ± 0.013
GCAAAGGGGT | 0.996 ± 0.021
GACACTTAGG | 1.05 ± 0.017
GGGGGGTTGT | 1.03 ± 0.17
ATAGCATTAT | 1.14 ± 0.026
GGGTCTTAAT | 0.981 ± 0.031
TGCTGTTCTC | 0.995 ± 0.018
CAATGAAAGC | 1.04 ± 0.021
GGGGTAAATT | 1 ± 0.039
GCGGCGTCAA | 1.064 ± 0.0067
CCAGGGGGTC | 1.11 ± 0.14
CGCAGGATGG | 1.05 ± 0.05
ATTATCAGCC | 1.022 ± 0.0041
GGGGTAGGTA | 0.96 ± 0.038
TCCCCAGCAC | 3.1 ± 2.7

Sequence | switch fluorescence ratio
GTGGAAGGCG | 0.975 ± 0.03
GTGTGACGGT | 0.949 ± 0.019
GGGACTGGTA | 1 ± 0.049
CGGGGGTGCT | 0.966 ± 0.044
TTAATAATAA | 1 ± 0.034
TGTTGGAGGG | 1.04 ± 0.027
ATCTTAGTTT | 1 ± 0.025
AGGGCTGTTC | 1.063 ± 0.0045
GGACTATGGT | 0.981 ± 0.014
ATCGGTTTTG | 1.01 ± 0.021
AGTGTGGGCG | 1.04 ± 0.02
AAAAGGTTAT | 1.02 ± 0.027
ACCGTTTTGT | 1.02 ± 0.019
TTGGAAATTA | 1.036 ± 0.0082
AAACGGATTC | 0.999 ± 0.052
TGGTCAACTA | 1 ± 0.02
TATCTGGGGG | 1.01 ± 0.055
TTCACAACCT | 1.77 ± 0.36
AATGTTATAT | 1.01 ± 0.014
TCATGTTGGA | 0.977 ± 0.02
AAAGGTGGCG | 1.07 ± 0.19
TTTAAAATAG | 1.01 ± 0.019
AGGGAAAGTT | 1.01 ± 0.024

Sequence | switch fluorescence ratio
AAGCGAAAGA | 1.03 ± 0.014
GAGGTTGTGG | 0.973 ± 0.06
CTGGTATTCT | 0.996 ± 0.037
GGGCTGATAG | 1.01 ± 0.025
ACGGGATG | 1.039 ± 0.0044
TTCCCATGTT | 1 ± 0.012
GGACTTTCGT | 0.993 ± 0.015
TTTTAAAGGT | 1.01 ± 0.024
TTCTTCACGG | 1.04 ± 0.035
ATGGGGGTGT | 1.004 ± 0.0059
AAGACGGGTT | 1.02 ± 0.077
GAAGGCAGTC | 1.13 ± 0.04
TTTATTTACT | 1.011 ± 0.0036
CAGGCTATTT | 1.03 ± 0.049
GTTTTTCTTC | 0.9923 ± 0.0058
GGGATCATGG | 1.08 ± 0.083
AATATGATTG | 1.02 ± 0.019
TATGATTTTG | 0.993 ± 0.02
AAGAAAGGGC | 1 ± 0.041
ACGATTTAAG | 1.03 ± 0.05
GGGGCATGAG | 1.04 ± 0.021
CTTCTGGTCG | 1.01 ± 0.04
TTGAAATAG | 0.9957 ± 0.0097

Sequence | switch fluorescence ratio
TTTATGTCTG | 1.01 ± 0.039
TCGGTCCCGG | 1 ± 0.065
AATCAGACGG | 1.02 ± 0.021
GGGGAAAACT | 1.01 ± 0.022
TTCTATTACC | 1.01 ± 0.032
AAAATATGGT | 1.01 ± 0.033
GCAGTATGGT | 0.985 ± 0.016
CTCTCTAGCT | 1.035 ± 0.01
GTGGACTTAA | 0.9953 ± 0.0046
ACTGGGGGTT | 0.994 ± 0.029
TGCTGGTCTG | 1.02 ± 0.047
AAACTTCGGG | 1 ± 0.026
AAGAGTGGCT | 1.03 ± 0.017
TTCGGGAATT | 1.1 ± 0.11
CCATGTTGAT | 1 ± 0.039
CTGCAATAGA | 4.41 ± 0.16
ACTTGAGGGA | 0.9743 ± 0.0071
CGGAGGACAC | 1.09 ± 0.059
CATGGCCTGA | 0.977 ± 0.018
AATCAAAAAG | 0.959 ± 0.018
ATTTTAGCTG | 1.01 ± 0.046
AGCGAGGTCT | 0.977 ± 0.027
CAGAGTTTGA | 0.969 ± 0.0047

Sequence | switch fluorescence ratio
TGCTTTCTTC | 1.15 ± 0.31
TTACGGGGGG | 1.02 ± 0.052
TCAGAAGGCT | 0.999 ± 0.065
TTAGGATCGC | 1.02 ± 0.057
CTAATCTAGC | 1.045 ± 0.0017
GATTTGACGG | 0.983 ± 0.022
CAACGAGGGG | 1.02 ± 0.039
TTTTTGAGAG | 0.998 ± 0.032
TGGAGTATTT | 0.9525 ± 0.005
TCGATATTGG | 1.02 ± 0.022
AGATTACGAG | 1.02 ± 0.026
ATAACGCTCG | 1 ± 0.018
GGGATAAGGG | 1.01 ± 0.027
TGCAATTGTA | 1.0195 ± 0.00099
TTTGGGCGAG | 0.976 ± 0.045
GTTGTACGAT | 0.9971 ± 0.003
GTCCGGGGTC | 0.972 ± 0.065
GCCTTCGAGG | 1.03 ± 0.012
TTTTTGGTTA | 1 ± 0.016
